Assay results taken from patent US20250197501A1 (DEVELOPMENT CENTER FOR BIOTECHNOLOGY, published 2025).
Like-named read-outs stand apart in the source and are kept apart here.

Tests used:
[1] = molecular target: T1, recombinant human B7-H3-mFc protein (human, UniProt Q5ZPR3 29-466); experiment: ELISA, plate coated with human B7-H3-mFc
T1 construct: also called B7-H3 protein; not shown: mouse Fc domain
T1 sequence: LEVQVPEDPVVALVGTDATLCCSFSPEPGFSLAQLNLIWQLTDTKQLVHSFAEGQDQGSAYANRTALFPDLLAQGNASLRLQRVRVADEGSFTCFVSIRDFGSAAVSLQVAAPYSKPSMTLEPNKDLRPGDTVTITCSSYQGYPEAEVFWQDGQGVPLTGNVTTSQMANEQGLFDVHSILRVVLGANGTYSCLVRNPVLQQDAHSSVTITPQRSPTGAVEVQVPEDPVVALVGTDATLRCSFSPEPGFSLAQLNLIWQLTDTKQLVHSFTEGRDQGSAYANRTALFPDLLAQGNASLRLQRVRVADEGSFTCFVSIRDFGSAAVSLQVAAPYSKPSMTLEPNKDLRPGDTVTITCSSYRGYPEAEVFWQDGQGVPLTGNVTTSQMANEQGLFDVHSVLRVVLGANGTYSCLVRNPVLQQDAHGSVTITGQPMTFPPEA
Method: (§1) The binding affinity of full-length antibodies to human, monkey, mouse and rat B7-H3 were evaluated by ELISA. In brief, 96-well plate was coated with B7-H3 proteins (i.e., human B7-H3-mFc protein, cynomolgus monkey B7-H3 protein or rat B7-H3 Fc chimeric protein) in coating buffer and incubated overnight at 4° C. After washing with PBS for 3 times, the 96-well plate was inverted and tapped on clean absorbent papers to remove excess liquid. The blocking buffer (PBS containing 1% bovine serum albumin (BSA) was added to the wells, followed by incubating the plate at 37° C. for 1 hour with gentle continual shaking. After washing with PBS for 3 times, serial dilutions of anti-B7-H3 antibody (in PBS containing 1% BSA) were added into the wells. The plate was incubated at 37° C. for 1 hour with gentle continual shaking. After washing with PBS for 3 times, the secondary antibody (peroxidase-conjugated AffiniPure™ F(ab′)₂ fragment goat anti-human IgG (H+L)) was added into the wells and then incubated at 37° C. for 1 hour with gentle continual shaking. The plate was washed with PBS for 3 times, and the TMB substrate was added into each well and incubated at room temperature for 5 minutes, avoiding from light. 1 N HCl stop solution was added into each well and the absorbance was measured at 450/650 nm. The binding affinity value (EC50) of antibodies was determined by software.

[2] = molecular target: T2, recombinant cynomolgus monkey B7-H3 protein (cynomolgus monkey, UniProt Q7TPB4 26-248 (rat entry)); experiment: ELISA, plate coated with cynomolgus monkey B7-H3
T2 chain: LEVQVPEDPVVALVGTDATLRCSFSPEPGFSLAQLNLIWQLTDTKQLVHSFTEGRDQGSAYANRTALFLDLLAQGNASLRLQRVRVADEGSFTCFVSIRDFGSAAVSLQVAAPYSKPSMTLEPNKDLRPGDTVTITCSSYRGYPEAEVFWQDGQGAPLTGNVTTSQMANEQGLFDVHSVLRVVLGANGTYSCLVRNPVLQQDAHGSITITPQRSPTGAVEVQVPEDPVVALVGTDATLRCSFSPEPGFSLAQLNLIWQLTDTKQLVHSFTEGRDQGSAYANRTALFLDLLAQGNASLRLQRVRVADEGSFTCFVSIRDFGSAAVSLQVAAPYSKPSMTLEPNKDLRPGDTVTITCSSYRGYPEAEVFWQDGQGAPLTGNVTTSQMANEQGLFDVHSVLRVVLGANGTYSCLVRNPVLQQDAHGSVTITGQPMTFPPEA

[3] = molecular target: T3, human B7-H3 on the surface of human cancer cells (human, UniProt Q5ZPR3 29-534); experiment: cell-based or functional assay
T3 sequence: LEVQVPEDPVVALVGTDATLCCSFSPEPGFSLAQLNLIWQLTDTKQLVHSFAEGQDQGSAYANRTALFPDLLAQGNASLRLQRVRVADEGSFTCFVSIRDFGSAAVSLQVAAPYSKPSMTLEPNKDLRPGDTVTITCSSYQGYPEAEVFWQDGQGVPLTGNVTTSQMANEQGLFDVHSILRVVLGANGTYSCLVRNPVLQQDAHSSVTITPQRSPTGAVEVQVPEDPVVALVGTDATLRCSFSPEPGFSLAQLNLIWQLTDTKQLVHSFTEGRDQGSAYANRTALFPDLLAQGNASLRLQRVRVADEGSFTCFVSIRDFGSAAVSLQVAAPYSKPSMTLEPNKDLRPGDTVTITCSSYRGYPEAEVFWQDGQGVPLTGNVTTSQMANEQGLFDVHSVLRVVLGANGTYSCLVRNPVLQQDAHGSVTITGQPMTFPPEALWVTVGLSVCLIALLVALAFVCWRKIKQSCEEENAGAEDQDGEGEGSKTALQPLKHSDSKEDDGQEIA

[4] = molecular target: T1, recombinant human B7-H3-mFc protein; experiment: SPR; MMAE conjugate, not parental mAb
Method: The binding kinetics of the present antibodies against human B7-H3 were determined by Biacore™ assay. Carboxymethylated dextran biosensor chips (CM5) were activated according to the supplier's instructions. Anti-human IgG (Fc) was diluted with immobilization buffer before injection at a flow rate of 10 μL/minute to achieve approximately 10,000 response units (RU) of coupled protein followed by the injection of 1 M ethanolamine to block unreacted groups. Human anti-B7-H3 antibodies were captured on anti-human IgG chip. For kinetics measurements, two-fold serial dilutions of human B7-H3-mFc protein (from 40 nM to 0.3125 nM) were injected in HBS-EP⁺ Biacore™ running buffer provided by the manufacturer at a flow rate of 30 μL/min.

[5] = molecular target: T3, human B7-H3 on the surface of human …; experiment: cell-based or functional assay; remark: listed apart in the source
[6] = molecular target: T4, recombinant rat B7-H3-mFc protein (rat, UniProt Q7TPB4 29-244); experiment: ELISA, plate coated with rat B7-H3 mFc
T4 construct: also called rat B7-H3 mFc chimeric protein; rat B7-H3 Fc chimeric protein; not shown: mouse Fc domain
T4 sequence: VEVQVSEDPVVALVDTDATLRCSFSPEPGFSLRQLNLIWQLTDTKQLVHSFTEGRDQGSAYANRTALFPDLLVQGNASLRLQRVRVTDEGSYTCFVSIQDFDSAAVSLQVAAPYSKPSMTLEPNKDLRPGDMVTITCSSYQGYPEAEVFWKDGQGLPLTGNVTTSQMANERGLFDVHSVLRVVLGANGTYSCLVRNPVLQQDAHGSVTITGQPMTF
Method: as §1

[7] = molecular target: T5, recombinant mouse B7-H3-mFc protein (mouse, UniProt Q8VE98 29-244); experiment: ELISA, plate coated with mouse B7-H3 mFc
T5 construct: not shown: mouse Fc domain
T5 sequence: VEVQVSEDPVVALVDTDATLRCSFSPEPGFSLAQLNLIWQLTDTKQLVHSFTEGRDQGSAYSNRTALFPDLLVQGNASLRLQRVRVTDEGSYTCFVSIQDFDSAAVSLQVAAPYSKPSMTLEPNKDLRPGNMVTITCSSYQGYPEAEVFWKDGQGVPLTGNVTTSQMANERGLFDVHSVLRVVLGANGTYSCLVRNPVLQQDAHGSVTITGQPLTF
Method: as §1

[8] = molecular target: T1, recombinant human B7-H3-mFc protein; experiment: SPR (Biacore), antibody captured on anti-human IgG chip, B7-H3 protein injected
[9] = molecular target: T4, recombinant rat B7-H3-mFc protein; experiment: as above
[10] = molecular target: T5, recombinant mouse B7-H3-mFc protein; experiment: as above
B7-H1 = experiment: ELISA on the named B7 family protein (Example 1.1), A450 readout; antibody concentration not given
B7-H2 = molecular target: T6, B7-H2; experiment: as above
T6 chain: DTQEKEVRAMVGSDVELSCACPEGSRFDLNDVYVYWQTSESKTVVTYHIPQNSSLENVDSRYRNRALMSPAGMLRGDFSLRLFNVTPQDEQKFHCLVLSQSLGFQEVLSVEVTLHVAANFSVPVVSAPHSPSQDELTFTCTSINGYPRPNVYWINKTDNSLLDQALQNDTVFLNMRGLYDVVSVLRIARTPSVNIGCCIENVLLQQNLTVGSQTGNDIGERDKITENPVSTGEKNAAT

B7-H4 = molecular target: T7, B7-H4; experiment: as above
T7 construct: Member of the group m9
T7 chain: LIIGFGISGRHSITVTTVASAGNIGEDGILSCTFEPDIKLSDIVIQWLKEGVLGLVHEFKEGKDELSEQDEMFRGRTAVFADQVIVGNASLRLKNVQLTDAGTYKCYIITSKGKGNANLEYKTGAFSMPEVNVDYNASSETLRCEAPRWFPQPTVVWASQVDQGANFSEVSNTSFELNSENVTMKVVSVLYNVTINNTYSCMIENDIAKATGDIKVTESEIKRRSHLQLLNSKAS

B7-H6 = molecular target: T8, B7-H6; experiment: as above
T8 chain: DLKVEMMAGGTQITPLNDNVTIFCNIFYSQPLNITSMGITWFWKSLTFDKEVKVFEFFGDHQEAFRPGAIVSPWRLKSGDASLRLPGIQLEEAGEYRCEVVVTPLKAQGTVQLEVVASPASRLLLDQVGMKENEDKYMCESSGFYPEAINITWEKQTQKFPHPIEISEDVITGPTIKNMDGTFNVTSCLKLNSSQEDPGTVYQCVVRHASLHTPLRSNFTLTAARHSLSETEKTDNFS

B7-H7 = molecular target: T9, B7-H7; experiment: as above
T9 chain: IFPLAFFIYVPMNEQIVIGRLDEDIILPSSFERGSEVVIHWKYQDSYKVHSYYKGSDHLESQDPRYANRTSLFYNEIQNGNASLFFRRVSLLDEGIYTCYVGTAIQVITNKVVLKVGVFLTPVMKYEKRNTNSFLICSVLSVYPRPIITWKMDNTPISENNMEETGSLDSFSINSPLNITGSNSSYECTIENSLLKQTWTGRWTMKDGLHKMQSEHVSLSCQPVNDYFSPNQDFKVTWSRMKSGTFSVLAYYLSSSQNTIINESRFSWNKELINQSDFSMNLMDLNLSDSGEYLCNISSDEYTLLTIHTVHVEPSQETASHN

B1: Ifinatamab (antibody, V domains shown)
VH: QVQLVQSGAEVKKPGSSVKVSCKASGYTFTNYVMHWVRQAPGQGLEWMGYINPYNDDVKYNEKFKGRVTITADESTSTAYMELSSLRSEDTAVYYCARWGYYGSPLYYFDYWGQGTLVTVSS
VL: EIVLTQSPATLSLSPGERATLSCRASSRLIYMHWYQQKPGQAPRPLIYATSNLASGIPARFSGSGSGTDFTLTISSLEPEDFAVYYCQQWNSNPPTFGQGTKVEIK
EC50 [1]: 0.0356 nM | EC50 [2]: 0.127 nM

B2: 91H06-MMAE (other)
VH: EVQLVESGGGLVQPGGSLRLSCAASGFTFSDYGMGWVRQAPGKGLEWVSSISWDSSSKEYADSVKGRFTISRDNSKNTLYLQMNSLRAEDTAVYYCARAWIAIIGGGAHFDYWGQGTLVTVSS
VL: DIQMTQSPSSLSASVGDRVTITCRASQSVSSHLAWYQQKPGKAPKLLIYLTSSLQSGVPSRFSGSGSGTDFTLTISSLQPEDFATYYCMQSKSLPFTFGQGTKVEIKR
modifications: MMAE linked through a PEG linker and a protease-sensitive valine-citrulline or glutamate-valine-citrulline linker to the azide-modified antibody (mAb-4 Azide, tri-mannosyl ADC platform); DAR between 3.5 and 3.9; attachment residue not stated
notes: also called the present ADC
Cytotoxicity activity (IC50, nM), CAL 27 cells [3]: < 50 nM | Cytotoxicity activity (IC50, nM), Detroit 562 cells [3]: < 50 nM | Cytotoxicity activity (IC50, nM), FaDu cells [3]: < 50 nM | Cytotoxicity activity (IC50, nM), LNCaP cells [3]: < 50 nM | Kd [4]: 0.24 nM | koff [4]: 0.000155 s⁻¹ | kon [4]: 643000 M⁻¹ s⁻¹

B3: 91H06-MMAF (other)
VH: EVQLVESGGGLVQPGGSLRLSCAASGFTFSDYGMGWVRQAPGKGLEWVSSISWDSSSKEYADSVKGRFTISRDNSKNTLYLQMNSLRAEDTAVYYCARAWIAIIGGGAHFDYWGQGTLVTVSS
VL: DIQMTQSPSSLSASVGDRVTITCRASQSVSSHLAWYQQKPGKAPKLLIYLTSSLQSGVPSRFSGSGSGTDFTLTISSLQPEDFATYYCMQSKSLPFTFGQGTKVEIKR
modifications: MMAF linked through a PEG linker and a protease-sensitive valine-citrulline or glutamate-valine-citrulline linker to the azide-modified antibody (mAb-4 Azide, tri-mannosyl ADC platform); DAR between 3.5 and 3.9; attachment residue not stated
Cytotoxicity activity (IC50, nM), CAL 27 cells [5]: < 10 nM | Cytotoxicity activity (IC50, nM), Detroit 562 cells [5]: < 10 nM | Cytotoxicity activity (IC50, nM), FaDu cells [5]: < 10 nM | Cytotoxicity activity (IC50, nM), LNCaP cells [5]: < 10 nM

B4: mAb 91H06 (antibody, V domains shown)
VH: EVQLVESGGGLVQPGGSLRLSCAASGFTFSDYGMGWVRQAPGKGLEWVSSISWDSSSKEYADSVKGRFTISRDNSKNTLYLQMNSLRAEDTAVYYCARAWIAIIGGGAHFDYWGQGTLVTVSS
VL: DIQMTQSPSSLSASVGDRVTITCRASQSVSSHLAWYQQKPGKAPKLLIYLTSSLQSGVPSRFSGSGSGTDFTLTISSLQPEDFATYYCMQSKSLPFTFGQGTKVEIKR
notes: Fully human, detected with anti-human IgG; also called antibody 91H06; anti-B7-H3 monoclonal antibody 91H06
EC50 [6]: 0.0601 nM | EC50 [1]: 0.0186 nM | EC50 [7]: 0.0767 nM | Kd [8]: 0.227 nM | kon [9]: 178000 M⁻¹ s⁻¹ | Kd [10]: 2.03 nM | binding result (B7-H1): no binding | binding result (B7-H2): no binding | binding result (B7-H4): no binding | binding result (B7-H6): no binding | binding result (B7-H7): no binding
